Where a chain is given by its changes, count along the chain named. In names and notes the source's numbering stands.

Data set [1] addresses T1, AA9A LPMO from Lentinus similis (LsAA9A), secreted by K. phaffii, His6-tagged.
T1 chain: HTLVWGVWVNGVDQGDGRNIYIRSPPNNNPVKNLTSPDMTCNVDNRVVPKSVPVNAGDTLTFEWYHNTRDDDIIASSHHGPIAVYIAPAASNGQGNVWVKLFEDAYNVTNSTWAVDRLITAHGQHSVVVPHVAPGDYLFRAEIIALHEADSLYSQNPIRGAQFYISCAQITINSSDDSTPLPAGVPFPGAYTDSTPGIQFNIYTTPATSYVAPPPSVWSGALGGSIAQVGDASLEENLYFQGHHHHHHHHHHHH

Data set [2] deals with T2, AN4702 protein of Aspergillus nidulans (uniprot entry Q5B428), native N-terminally histidine-methylated protein, Q5B428.
T2 chain: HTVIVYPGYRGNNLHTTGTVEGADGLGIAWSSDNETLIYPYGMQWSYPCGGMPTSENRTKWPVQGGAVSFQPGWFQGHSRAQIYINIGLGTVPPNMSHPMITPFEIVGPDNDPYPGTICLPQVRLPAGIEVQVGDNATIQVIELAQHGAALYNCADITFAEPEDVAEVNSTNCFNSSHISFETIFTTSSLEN

B1: AN4663 N-terminal histidine methyltransferase (NHMT) from Aspergillus nidulans (protein)
chain: MAPFRSIYEKDATKKLVVGAALLVLAAFYSYVFLLTLAPVYGSTPSHIFHGYGVGIAGVAGWFSKDIVDRVSGRKAIYAIPVLAFFLPVVQYFVSQQSSALGNPAGPIFTEVLALYPLVLLSVACAGKLVQAGLNLQRHGDLVAEHIPLLGSYVIYSAGEHLIKAFLSRFIGSTVLLSRAGLQILIAIFYAAAVPSKALLLAIPAFLFSVTSNTHLPLGHTTTALNNIIADDGFALVARQDSTTGYISVLDNLEDGFRVMRCDHSLLGGQWIKKRPNYTPPAVKDPIYAVFTMLEAVRLVETAHGIPRADAGSNALVIGLGIGTTPGALISHGIDTTIVEIDPVVHKYALQYFDLPENHTPIIEDARAFVQRSRNAPQPKQYDYIVHDVFTGGAEPVELFTYEFISGLHALLKDDGVIAINYAGDISLYSTALSIRTIKSIFPTCRLFREAAAPEIGPDFTNMVIFCTKSRGAPITFRDPVPEDFLGSRFRSRYLVPKHEVDAAQFDNVGLEDGPQGHGRRVLVDKEVGRLHKYQDRSALEHWGIMRTVLPDRVWEGW
Regarding B1, in data set [1], the “methylation stoichiometry of the N-terminal peptide of secreted LsAA9A (targeted MS), Amy signal peptide construct, co-expression in K. phaffii” value is “a methylation stoichiometry on average of 65% of the peptides for the Amy signal peptide” and the “methylation stoichiometry of the N-terminal peptide of secreted LsAA9A (targeted MS), native signal peptide construct, co-expression in K. phaffii” value is 29% for the native signal peptide. Also, the “PRM assay of N-terminal histidine methylation of the AN4702 peptide in A. nidulans knockout strains” value in data set [2] is “the knockout of the gene [SEQ ID NO.: 1] encoding AN4663 (uniprot entry Q5B467) [SEQ ID NO.: 2] abolished the N-terminal histidine methylation on the monitored peptides and conversely, the unmethylated form was observed”.

B2: N-terminally mRFP-tagged AN4663 (strain NID2789) (protein)
chain: B1 chain
Regarding B2, the “PRM assay of N-terminal histidine methylation in A. nidulans (strain NID2789)” value in data set [2] is reported as “methylation of LPMOs was stoichiometric for the N-terminally tagged version”.

B3: C-terminally mRFP-tagged AN4663 (strain NID2794) (protein)
chain: B1 chain
For the protein B3, the “PRM assay of N-terminal histidine methylation in A. nidulans (strain NID2794)” value in data set [2] was “the C-terminal mRFP tagged version was unable to methylate the LPMOs”.

B4: AN4663 with E340A substitution (strain NID2787) (protein)
chain: B1 chain with E340A
As to B4, the “PRM assay of N-terminal histidine methylation in A. nidulans (strain NID2787)” value in data set [2] is given as “Site-directed mutagenesis of this glutamate to an alanine (E340A) lead to a loss of N-terminal histidine methylation generating a similar methylation phenotype to a complete knockout of AN4663”.

B5: Truncated variant of AN4663 lacking the transmembrane region (positions 1-224) (protein)
chain: LNNIIADDGFALVARQDSTTGYISVLDNLEDGFRVMRCDHSLLGGQWIKKRPNYTPPAVKDPIYAVFTMLEAVRLVETAHGIPRADAGSNALVIGLGIGTTPGALISHGIDTTIVEIDPVVHKYALQYFDLPENHTPIIEDARAFVQRSRNAPQPKQYDYIVHDVFTGGAEPVELFTYEFISGLHALLKDDGVIAINYAGDISLYSTALSIRTIKSIFPTCRLFREAAAPEIGPDFTNMVIFCTKSRGAPITFRDPVPEDFLGSRFRSRYLVPKHEVDAAQFDNVGLEDGPQGHGRRVLVDKEVGRLHKYQDRSALEHWGIMRTVLPDRVWEGW
In the case of B5, the “PRM quantification of methylated and unmethylated N-terminal peptide after truncation of AN4663” value in data set [2] is listed as “the expression of this variant abolished the N-terminal histidine methylation capacity of the enzyme”.

For the origin of these results see US20250236850.
